Biological target: the molecule itself
Test: FRET or BRET + split reporter

B1: Adenosine A2A receptor (receptor, UniProt P29274 1-412, looked up)
chain: MPIMGSSVYITVELAIAVLAILGNVLVCWAVWLNSNLQNVTNYFVVSLAAADIAVGVLAIPFAITISTGFCAACHGCLFIACFVLVLTQSSIFSLLAIAIDRYIAIRIPLRYNGLVTGTRAKGIIAICWVLSFAIGLTPMLGWNNCGQPKEGKNHSQGCGEGQVACLFEDVVPMNYMVYFNFFACVLVPLLLMLGVYLRIFLAARRQLKQMESQPLPGERARSTLQKEVHAAKSLAIIVGLFALCWLPLHIINCFTFFCPDCSHAPLWLMYLAIVLSHTNSVVNPFIYAYRIREFRQTFRKIIRSHVLRQQEPFKAAGTSARVLAAHGSDGEQVSLRLNGHPPGVWANGSAPHPERRPNGYALGLVSGGSAQESQGNTGLPDVELLSHELKGVCPEPPGLDDPLAQDGAGVS
- stoichiometry N: ≥ 3

Reference: PMC2990800 (Molecular and cellular endocrinology, 2010)
